Reference: publication PMC12205646

Target: Hsp90-CYF61 homodimer (used as WT in the ATPase assays) (S. cerevisiae) (UniProt P02829)
UniProt P02829, sequence (P02829 whole entry): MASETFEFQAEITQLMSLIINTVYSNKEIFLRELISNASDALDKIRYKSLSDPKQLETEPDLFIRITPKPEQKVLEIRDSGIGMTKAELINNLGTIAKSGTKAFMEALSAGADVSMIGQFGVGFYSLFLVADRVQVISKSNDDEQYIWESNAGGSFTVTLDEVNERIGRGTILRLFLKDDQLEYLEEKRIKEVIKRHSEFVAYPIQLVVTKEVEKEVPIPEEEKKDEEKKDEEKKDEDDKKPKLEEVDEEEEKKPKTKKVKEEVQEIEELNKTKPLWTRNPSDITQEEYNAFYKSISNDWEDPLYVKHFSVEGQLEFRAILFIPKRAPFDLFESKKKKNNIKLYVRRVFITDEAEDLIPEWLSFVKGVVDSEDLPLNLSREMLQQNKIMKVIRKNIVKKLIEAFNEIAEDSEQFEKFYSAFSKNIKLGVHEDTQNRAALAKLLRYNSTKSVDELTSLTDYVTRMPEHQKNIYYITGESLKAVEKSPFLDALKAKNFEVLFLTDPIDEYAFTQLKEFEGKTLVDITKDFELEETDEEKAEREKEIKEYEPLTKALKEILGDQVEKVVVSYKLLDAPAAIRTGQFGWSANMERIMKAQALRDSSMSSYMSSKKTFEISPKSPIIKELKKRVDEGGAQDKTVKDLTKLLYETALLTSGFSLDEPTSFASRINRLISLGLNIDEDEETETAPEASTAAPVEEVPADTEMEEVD

B1: Aha1 (activator of Hsp90 activity 1) cochaperone (natural protein)
chain: MVVNNPNNWHWVDKNCIGWAKEYFKQKLVGVEAGSVKDKKYAKIKSVSSIEGDCEVNQRKGKVISLFDLKITVLIEGHVDSKDGSALPFEGSINVPEVAFDSEASSYQFDISIFKETSELSEAKPLIRSELLPKLRQIFQQFGKDLLATHGNDIQVPESQVKSNYTRGNQKSSFTEIKDSASKPKKNALPSSTSTSAPVSSTNKVPQNGSGNSTSIYLEPTFNVPSSELYETFLDKQRILAWTRSAQFFNSGPKLETKEKFELFGGNVISELVSCEKDKKLVFHWKLKDWSAPFNSTIEMTFHESQEFHETKLQVKWTGIPVGEEDRVRANFEEYYVRSIKLTFGFGAVL
Q: For B1, which stimulation of Hsp90 ATPase activity by Aha1 (ATP-regenerating coupled enzyme assay; 6 uM Aha1, 2 uM Hsp90 dimer) is on record?
A: 20 fold
